This data set concerns F1*sub RNA substrate (template-directed ligation). Briefly: fraction ligated after 30 min (ligated reads / total reads); higher = more ligase activity; sequences stand for … in GAGACCGCAACTGAAAAGTTGT…AGTTCTGCACGTAGAAGCAAAAGGC
The following applies: 42 °C. Summed up: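 Templates from an oligo pool were PCR-amplified, transcribed with T7 and gel-purified to give the ribozyme variants. Ligated and unligated products were separated on gel, reverse transcribed using barcoded primers, and read on a MiSeq. A quality filter of ≥20 was applied to core bases. Fraction ligated was taken as ligated reads as a share of all reads per variant.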
Consider TATACTTGTCGTAAGAACTTTGGAGGGTTGA [3d907], for which the fraction ligated was determined as 0.032.
To TACACTTGTCGTAAGACACTTGGATGGTTGA [3d718] belongs 0.0649.
Then “TATCATTGTCGTAAACACTTTGGATGGTTGA [3d1234]”, with 0.0592; and “TATCACTGTCGTAGACACTTTGGATGGTTGA [3d1395]”, with 0.409; and TATCCTTTCGTAAGACACTTTGATGGGTTGA [3d978], with 0.77.
Then “TATCACTTGTCGTAAGACACTTTGGTGGTTA [3d2273]”, with 0.0182.
Turning to “TATCACTTGTGTAAGACATTGGATGGGTTGA [3d1779]”, the fraction ligated came out at 0.848.
Then TACACTTGTCTAAGACCTTTGGATGGGTTGA [3d637], with 0.0809; and TACACTTGTCGTAAGCACTTTGGAGGGTTGA [3d688], with 0.0515; and “TATCACTTTCTAAGACACTTTGGATGGTTGA [3d1490]”, with 0.114.
To ATCACTTGTCGTAAGACACTTTATGGGTTGA [3d260] belongs 0.0125.
To ATCACTTGTCGAAGACACTTTGGATGGGTTG [3d197] belongs 0.795; to TTCACTTGTCGTAAGCACTTTGGTGGGTTGA [3d457], 0.0197; to TACACTTGTCGAAGACACTTTGGAGGGTTGA [3d655], 0.126.
The sequence “TATCACTTTCGTAAGACATTGGATGGGTTGA [3d1554]” had a fraction ligated of 0.791.
TATACGTCGTAAGACACTTTGGATGGGTTGA [3d777] had a fraction ligated of 0.735.
With “TATCATTGCGTAAGCACTTTGGATGGGTTGA [3d1161]”, the fraction ligated was 0.799.
Then “TATCCTTGTCGTAAACCTTTGGATGGGTTGA [3d1056]”, with 0.766; and “TATCACTTGTGTAAGACACTTTGGAGGGTTG [3d1805]”, with 0.0238.
To TATACTTTCGTAAGACACTTTGGATGGTTGA [3d809] belongs 0.0312.
In turn, “TATCACTTGTCGTAGAACTTTGGTGGGTTGA [3d2016]” gave a fraction ligated of 0.138.
To “TATCACTTGTGTAAGACCTTGGATGGGTTGA [3d1772]” belongs 0.856.
For the sequence TTCACTTGTTAAGACACTTTGGATGGGTTGA [3d387], the fraction ligated came out at 0.775.
Then TATACTTGTGTAAGACACTTTGGTGGGTTGA [3d838], with 0.0565; and “TATCCTTGTCGTAAACACTTTGGATGGGTTG [3d1064]”, with 0.805.
Then ATCACTGTCGTAAGACACTTTGGATGGGTTG [3d123], with 0.74.
To “TATCACTGTCGTAAGCACTTTGGTGGGTTGA [3d1413]” belongs 0.11.
“TATCACGTCGTAAGACACTTTGGATGGGTTGA [2d128]” registered a fraction ligated of 0.791.
Then “TATCACTTGTCTAAGACCTTTGGTGGGTTGA [3d1866]”, with 0.227; and “TATCACTTGTCGTAAGCACTTGGATGGGTTA [3d2133]”, with 0.565; and “TATCACTTGTCGTAAGAACTTTGATGGGTTA [3d2170]”, with 0.09.
Then ACCTTGTCGTAAGACACTTTGGATGGGTTGA [3d25], with 0.616.
In turn, “TATCACTTGTCGTAAGACACTTTGAGGTTGA [3d2264]” came in with a fraction ligated of 0.0133.
To “TATCACTTGTCGAAGACCTTGGATGGGTTGA [3d1943]” belongs 0.768.
To TTCACTTGTCGTAAGACACTTTGGAGGTTGA [3d501] belongs 0.00904; to TACACTTGTCTAAGACACTTTGGATGGTTGA [3d643], 0.449.
Regarding TATACTTGTCGTAAACACTTTGGATGGTTGA [3d890], the fraction ligated stood at 0.0192.
For TACATTGTCGTAAGACACTTTGGAGGGTTGA [3d562], the fraction ligated stood at 0.16.
Then “TATCACTTCGTAAGACACTTTGGATGGGTTGA [2d129]”, with 0.825.
To ATCACTGTCGTAAGACACTTTGGAGGGTTGA [3d120] belongs 0.148; to “TATCATTGTCGTAAGACACTTGGATGGTTGA [3d1273]”, 0.395; to “TATCACTTGTCGTAAACACTTTGGTGGGTTG [3d2097]”, 0.0291.
To “TATCACTTGTCGTAACACTTTGGATGGTTGA [3d2000]” belongs 0.0413.
ATCACTTGTCGTAAGACACTTGGATGGGTTG [3d259] returned a fraction ligated of 0.687.
To “TATCATTTCGTAAGACATTTGGATGGGTTGA [3d1148]” belongs 0.801.
Then “TATCACTTTCGTAAGACACTTGGATGGGTTA [3d1566]”, with 0.477; and “TATCACTTGTGTAAGCCTTTGGATGGGTTGA [3d1755]”, with 0.76; and TACACTTCGTAAGACACTTTGGATGGGTTGA [3d567], with 0.0399.
Then “TATCACGTCGTAAGACACTTTGGATGGTTGA [3d1308]”, with 0.361; and TTCACTTGCGTAAGACATTTGGATGGGTTGA [3d379], with 0.768; and ATCCTTGTCGTAAGACACTTTGGATGGGTTA [3d84], with 0.218.
ATCACTTGCGTAAGACCTTTGGATGGGTTGA [3d147]: the fraction ligated was found to be 0.757.
ATCACTTTCGTAAGACACTTTGATGGGTTGA [3d134] yielded a fraction ligated of 0.401.
To TTCACTTGTCGAAGCACTTTGGATGGGTTGA [3d418] belongs 0.287; to “TATCACTTGCGTAGACACTTTGGATGGGTTA [3d1637]”, 0.781; to “TATCACTTGTCGTAAACCTTTGGATGGGTTA [3d2072]”, 0.746.
Then ATCCTTGTCGTAAGACATTTGGATGGGTTGA [3d78], with 0.725; and “TATCACTTGTCGTAGACCTTTGGATGGGTTA [3d2026]”, with 0.798; and ATCATTGTCGTAAGACACTTTGGATGGGTTG [3d104], with 0.703.
Then TATACTTTCGTAAGACACTTTGGTGGGTTGA [3d807], with 0.00703.
Sequence “TATCATTGTCGTAAGACACTTTGGTGGGTTG [3d1285]” gave a fraction ligated of 0.247.
Then “TATCACTTGTCGTAGACCTTTGGATGGGTTG [3d2027]”, with 0.777.
To “TATCATTGTCGTAAGACATTTGGATGGGTTA [3d1267]” belongs 0.659; to “TATCATTGTGTAAGACACTTGGATGGGTTGA [3d1180]”, 0.799; to “TATCACTTGTCGTAAGCACTTTGGTGGGTTGA [2d249]”, 0.14.
Then ATCACTTGTCGTAAGACATTGGATGGGTTGA [3d246], with 0.739.
In the case of ATCACTTGTCGTAAGAACTTTGATGGGTTGA [3d233], the fraction ligated came to 0.533.
To “TATCACTTGTCGTAAACACTTGGATGGGTTG [3d2087]” belongs 0.774; to “TATCACTTGTCGTAGACACTTGGATGGGTTGA [2d227]”, 0.803.
To “TATCACTTGTCGTAAGACACTTTGGTGGGTTA [2d291]” belongs 0.018.
In the case of “TATCACTTGTCGTAAGACATTTGGATGGGTTA [2d274]”, the fraction ligated turned out to be 0.806.
For ATCACTTGTCGTAAGACATTTGGAGGGTTGA [3d249], the fraction ligated turned out to be 0.0168.

The values above are taken from the supplement of paper PMC6755084.
